Laboratory results from PMC7797366.

Columns and labels:
[1] = target: T1, LLHD3 (Mus musculus, UniProt P61372;P50481); assay: EMSA
T1 chain: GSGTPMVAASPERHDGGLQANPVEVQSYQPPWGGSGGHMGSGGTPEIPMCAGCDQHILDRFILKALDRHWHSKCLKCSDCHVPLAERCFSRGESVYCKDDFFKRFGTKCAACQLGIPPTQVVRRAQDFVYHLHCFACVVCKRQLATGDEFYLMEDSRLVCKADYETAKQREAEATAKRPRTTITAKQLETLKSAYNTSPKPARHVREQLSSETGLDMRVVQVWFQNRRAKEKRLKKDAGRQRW

[2] = target: T2, 2HD (Mus musculus, UniProt P61372;P50481); assay: SAXS
T2 chain: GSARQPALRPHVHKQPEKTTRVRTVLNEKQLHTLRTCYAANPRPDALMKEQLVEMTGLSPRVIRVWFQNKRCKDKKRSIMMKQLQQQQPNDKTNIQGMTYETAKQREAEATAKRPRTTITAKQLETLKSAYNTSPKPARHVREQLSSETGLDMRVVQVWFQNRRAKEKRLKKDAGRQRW

[3] = target: T3, 2HDLL (Mus musculus, UniProt P61372;P50481); assay: SEC-MALLS, SAXS
T3 chain: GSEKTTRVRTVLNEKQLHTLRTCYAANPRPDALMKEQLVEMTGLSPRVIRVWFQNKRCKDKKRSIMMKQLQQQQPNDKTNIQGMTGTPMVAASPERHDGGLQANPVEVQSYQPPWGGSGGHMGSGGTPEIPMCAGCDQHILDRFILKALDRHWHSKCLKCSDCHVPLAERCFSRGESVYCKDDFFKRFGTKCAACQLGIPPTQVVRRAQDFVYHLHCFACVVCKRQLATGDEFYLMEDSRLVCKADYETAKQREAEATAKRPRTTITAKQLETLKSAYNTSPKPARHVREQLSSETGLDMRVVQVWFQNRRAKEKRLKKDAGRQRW

[4] = target: T1, LLHD3; assay: EMSA

B1: ISL1GA (dsDNA)
DNA 1: ACCGCGTAATATCTG
DNA 2: CAGATATTACGCGGT
- binding result [1]: no binding

B2: M100 20-mer (SAXS) (dsDNA)
DNA 1: CCGCATTAGCCAAATTACGC
DNA 2: GCGTAATTTGGCTAATGCGG
- binding result [2]: binds
- binding result [3]: binds

B3: M100 (EMSA) (dsDNA)
DNA 1: CGGCCATTAGCCAAATTACGGC
DNA 2: GCCGTAATTTGGCTAATGGCCG
- Kd [4]: 1 µM
